Source: paper PMC9129911, “Electron Flow From the Inner Membrane Towards the Cell Exterior in Geobacter sulfurreducens: Biochemical Characterization of Cytochrome CbcL” (Frontiers in Microbiology, 2022)

Molecular target: T1, triheme cytochrome PpcA from Geobacter sulfurreducens (Geobacter sulfurreducens, three heme groups)
T1 chain: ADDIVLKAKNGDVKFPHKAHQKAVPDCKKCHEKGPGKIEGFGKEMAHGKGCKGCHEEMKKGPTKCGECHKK
Assay: NMR titration; 1D 1H NMR chemical shift perturbation; CbcL (800 uM stock) added to 50 uM PpcA, both oxidized, 10 mM sodium phosphate pH 8, in 2H2O, 25°C; shift of PpcA heme methyl 18^1CH3^I fitted to a one binding site model under fast exchange
Details: both partners purified

- Kd: 57 ± 9 µM
B1: CbcL periplasmic domain (c- and b-type cytochrome for low potential) from Geobacter sulfurreducens (domain or fragment)
chain: IDPATCLGCHSNKISAAAFSASVHGKNACTSCHVEITDLTKHMKGEVKVEKVRCERCHKKENAEHYSSVHAQKDVRCADCHTDIHTHSYWNKDKRKVVAKCIQCHDKEAGYRNSIHGKGVAAGNMDSAACNDCHNLHDIKPLGDPKSKENREFHTKVCLKCHADEKMMERNNVFTVAVKTYMDSYHGKNYRLGFPEKVAGCADCHTAHGVLPAKDPNSSVNPQNLVATCAKCHPKATPLFTKFYSHGELG
modifications: nine c-type heme groups
